Here are results for 94 variants from the supplement of paper PMC10567573.

First the molecules themselves.
B1: FCHO1 (parent)
chain: DKLALCHLELTRKLQDLIKDVLRY
B2: PLAGL1 (parent)
chain: CKDFLCQFCAQRFGRKDHLTRHTK
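Further: lentivirally expressed fusions sorted by FACS into six bins by GFP to DsRed ratio, PSI derived from sequencing read proportions per bin multiplied by bin number.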

The variants in one series derive from B1. Briefly: protein stability index of a GFP-peptide fusion (GPS, HEK-293T) (PSI 1-6); higher = more stable. To be noted: c terminus: a fixed tail appended.
Consider DKLALCHLELTRKLQDLAKDVLRY [I18A], for which the protein stability index came to 2.71.
As to DKLALCHLELTRKLQDLSKDVLRY [I18S], the protein stability index was determined as 2.6.
DKLALCHLELTRKLQDLGKDVLRY [I18G]: the protein stability index stood at 2.33.
On to DKLALCHLELTRKLQDLEKDVLRY [I18E], for which the protein stability index came to 3.6.
Regarding DKLALCHLELTRKLQDLYKDVLRY [I18Y], the protein stability index stood at 2.52.
Regarding DKLALCHLELTRKLQDLKKDVLRY [I18K], the protein stability index came out at 3.16.
Still for that read-out and setting: the same measure for DKLALCHLELTRKLQDLRKDVLRY [I18R]: 2.76; for DKLALCHLELTRKLQDLPKDVLRY [I18P]: 2.11; for DKLALCHLEETRKLQDLIKDVLRY [L10E]: 2.57.
In the case of DKLALCHLEQTRKLQDLIKDVLRY [L10Q], the protein stability index was 3.04.
With DKLALCHLEYTRKLQDLIKDVLRY [L10Y], the protein stability index turned out to be 1.76.
In the case of DKLALCHLERTRKLQDLIKDVLRY [L10R], the protein stability index was found to be 1.51.
Consider DKLALCHLEDTRKLQDLIKDVLRY [L10D], for which the protein stability index came to 2.09.
Regarding DKLALCHLEMTRKLQDLIKDVLRY [L10M], the protein stability index was found to be 4.05.
For DKLALCHLETTRKLQDLIKDVLRY [L10T], the protein stability index was 2.14.
As for DKLALCHLEHTRKLQDLIKDVLRY [L10H], the protein stability index was determined as 1.3.
For DKLALCHLEFTRKLQDLIKDVLRY [L10F], the protein stability index is 3.33.
As for DKLALCHLEKTRKLQDLIKDVLRY [L10K], the protein stability index worked out at 1.59.
Turning to DKLALCHLEATRKLQDLIKDVLRY [L10A], the protein stability index is 2.75.
Consider DKLALCHLELTRKLQNLIKDVLRY [D16N], for which the protein stability index turned out to be 3.32.
For DKLALCHLELTRKLQCLIKDVLRY [D16C], the protein stability index worked out at 3.11.
With DKLALCHLELTRKLQVLIKDVLRY [D16V], the protein stability index turned out to be 2.92.
On to DKLALCHLELTRKLQSLIKDVLRY [D16S], for which the protein stability index worked out at 2.2.
Consider DKLALCHLELTRKLQILIKDVLRY [D16I], for which the protein stability index is 2.67.
Still for that read-out and setting: the same measure for DKLILCHLELTRKLQDLIKDVLRY [A4I]: 3.21; for DKLWLCHLELTRKLQDLIKDVLRY [A4W]: 3.22; for DKLPLCHLELTRKLQDLIKDVLRY [A4P]: 2.33.
The same measure, in the same setting: as for DKLFLCHLELTRKLQDLIKDVLRY [A4F], the figure is 2.01; as for DKLQLCHLELTRKLQDLIKDVLRY [A4Q], 3.43; as for DKLALCHLKLTRKLQDLIKDVLRY [E9K], 3.04.
Still for that read-out and setting: as for DKLALCHLYLTRKLQDLIKDVLRY [E9Y], the figure is 3.21; as for DKLALCHLSLTRKLQDLIKDVLRY [E9S], 1.77; as for DKLALCHLALTRKLQDLIKDVLRY [E9A], 2.63.
Take DKLALCHLWLTRKLQDLIKDVLRY [E9W]: the protein stability index stood at 2.73.
Take DKLALCHLVLTRKLQDLIKDVLRY [E9V]: the protein stability index stood at 4.2.
For DKLALCHLLLTRKLQDLIKDVLRY [E9L], the protein stability index turned out to be 2.72.
Consider DKLALCHLELIRKLQDLIKDVLRY [T11I], for which the protein stability index came out at 1.69.
For DKLALCHLELQRKLQDLIKDVLRY [T11Q], the protein stability index was determined as 2.8.
Still for that read-out and setting: the same measure for DKLALCHLELYRKLQDLIKDVLRY [T11Y]: 2.57; for DKLALCHLELNRKLQDLIKDVLRY [T11N]: 1.26.
For DKLALCHLELCRKLQDLIKDVLRY [T11C], the protein stability index turned out to be 3.34.
On the same count and under the same terms, as for DKLALCHLELPRKLQDLIKDVLRY [T11P], the figure is 1.51; as for DKLALCHLELSRKLQDLIKDVLRY [T11S], 2.25; as for DKLALCHLELMRKLQDLIKDVLRY [T11M], 2.82.
With VKLALCHLELTRKLQDLIKDVLRY [D1V], the protein stability index was 3.12.
On to TKLALCHLELTRKLQDLIKDVLRY [D1T], for which the protein stability index stood at 2.77.
As to GKLALCHLELTRKLQDLIKDVLRY [D1G], the protein stability index came out at 5.1.
With YKLALCHLELTRKLQDLIKDVLRY [D1Y], the protein stability index stood at 2.63.
Regarding WKLALCHLELTRKLQDLIKDVLRY [D1W], the protein stability index came out at 1.41.
Same read-out and setting: the same measure for EKLALCHLELTRKLQDLIKDVLRY [D1E]: 2.15; for KKLALCHLELTRKLQDLIKDVLRY [D1K]: 2.37.
Regarding QKLALCHLELTRKLQDLIKDVLRY [D1Q], the protein stability index stood at 4.47.
DKLALCHLELTMKLQDLIKDVLRY [R12M]: the protein stability index is 1.99.
As for DKLALCHLELTVKLQDLIKDVLRY [R12V], the protein stability index turned out to be 1.83.
For the variant DKLALCHLELTIKLQDLIKDVLRY [R12I], the protein stability index is 2.33.
The same measure, in the same setting: the same measure for DKLALCHLELTPKLQDLIKDVLRY [R12P]: 1.53; for DKLALCHLELTQKLQDLIKDVLRY [R12Q]: 2.9; for DKLALCHLELTHKLQDLIKDVLRY [R12H]: 2.98.
In the case of DKLALCHLELTGKLQDLIKDVLRY [R12G], the protein stability index worked out at 2.7.
As to DKLALCHLELTTKLQDLIKDVLRY [R12T], the protein stability index was found to be 1.94.
With DKLALCHLELTDKLQDLIKDVLRY [R12D], the protein stability index came out at 2.92.
The same measure, in the same setting: as for DKLALCHLELTCKLQDLIKDVLRY [R12C], the figure is 2.23.
DKLALCILELTRKLQDLIKDVLRY [H7I]: the protein stability index turned out to be 1.49.
DKLALCMLELTRKLQDLIKDVLRY [H7M]: the protein stability index is 2.67.
Still for that read-out and setting: the same measure for DKLALCQLELTRKLQDLIKDVLRY [H7Q]: 2.88.
As to DKLALCLLELTRKLQDLIKDVLRY [H7L], the protein stability index amounted to 1.56.
Regarding DKLALCWLELTRKLQDLIKDVLRY [H7W], the protein stability index came to 1.38.
Still for that read-out and setting: the same measure for DKLALCCLELTRKLQDLIKDVLRY [H7C]: 2.12; for DKLALCALELTRKLQDLIKDVLRY [H7A]: 1.84.
In the case of DKLALCFLELTRKLQDLIKDVLRY [H7F], the protein stability index was found to be 2.4.
As to DKLAWCHLELTRKLQDLIKDVLRY [L5W], the protein stability index turned out to be 4.03.
With DKLAHCHLELTRKLQDLIKDVLRY [L5H], the protein stability index is 2.98.
On to DKLASCHLELTRKLQDLIKDVLRY [L5S], for which the protein stability index was 3.18.
For the variant DKLAECHLELTRKLQDLIKDVLRY [L5E], the protein stability index was 1.62.
Take DKLATCHLELTRKLQDLIKDVLRY [L5T]: the protein stability index came out at 1.72.
On the same count and under the same terms, the same measure for DKLAYCHLELTRKLQDLIKDVLRY [L5Y]: 2.01.
In the case of DKLALCHLELTRKLQDLIKDVLRK [Y24K], the protein stability index turned out to be 2.3.
The same measure, in the same setting: as for DKLALCHLELTRKLQDLIKDVLRP [Y24P], the figure is 1.99; as for DKLALCHLELTRKLQDLIKDVLRN [Y24N], 2.43.
Same read-out and setting: as for DKLALCHLELTRKLQDLIKDVLRE [Y24E], the figure is 3.6; as for DKLALCHLELTRKLQDLIKDVLRT [Y24T], 2.26; as for DKLALCHLELTRKLQDLIKDVLRG [Y24G], 2.98.
For the variant DKLALCHLELTRKLQDLIKDVLRC [Y24C], the protein stability index was 2.92.
Take DKSALCHLELTRKLQDLIKDVLRY [L3S]: the protein stability index was 1.79.
With DKCALCHLELTRKLQDLIKDVLRY [L3C], the protein stability index is 2.51.
As for DKKALCHLELTRKLQDLIKDVLRY [L3K], the protein stability index was determined as 2.23.
On to DKEALCHLELTRKLQDLIKDVLRY [L3E], for which the protein stability index was found to be 2.3.
Turning to DKVALCHLELTRKLQDLIKDVLRY [L3V], the protein stability index worked out at 3.04.
With DKFALCHLELTRKLQDLIKDVLRY [L3F], the protein stability index came to 2.93.
As to DKTALCHLELTRKLQDLIKDVLRY [L3T], the protein stability index came to 1.81.

In the next series the parent is B2. The series is described as above. As to conditions: c terminus: a fixed tail appended.
Consider CKDFLCQFCAQRFGRKDHLTRHTQ [K24Q], for which the protein stability index came out at 2.25.
As to MKDFLCQFCAQRFGRKDHLTRHTK [C1M], the protein stability index came out at 1.53.
In the case of CKDFLCQFCAQRFGRLDHLTRHTK [K16L], the protein stability index was 2.49.
In the case of CKDFLCQFCAQRFGRKDHGTRHTK [L19G], the protein stability index turned out to be 2.73.
